Values quoted from earlier work, collected in article PMC3089658.

Molecular target: CD25 (Homo sapiens) (UniProt P01589)
Sequence of UniProt P01589 (P01589 22-240): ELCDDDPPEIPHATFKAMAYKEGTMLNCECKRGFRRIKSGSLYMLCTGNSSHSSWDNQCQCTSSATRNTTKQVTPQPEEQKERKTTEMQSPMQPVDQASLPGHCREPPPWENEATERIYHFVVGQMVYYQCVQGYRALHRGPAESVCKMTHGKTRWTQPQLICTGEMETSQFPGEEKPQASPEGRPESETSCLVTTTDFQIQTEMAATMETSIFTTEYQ

Substance: IL-2 (from UniProt P60568)
- Kd: 10 nM
